This data set deals with the molecule itself. The data set can be described thus: SEC. On the technique in general: Size exclusion chromatography separates by hydrodynamic size, large species first.

B1: Corynebacterium glutamicum citrate synthase with a C-terminal Strep tag (CgCS-Strep) (enzyme)
chain: MFERDIVATDNNKAVLHYPGGEFEMDIIEASEGNNGVVLGKMLSETGLITFDPGYVSTGSTESKITYIDGDAGILRYRGYDIADLAENATFNEVSYLLINGELPTPDELHKFNDEIRHHTLLDEDFKSQFNVFPRDAHPMATLASSVNILSTYYQDQLNPLDEAQLDKATVRLMAKVPMLAAYAHRARKGAPYMYPDNSLNARENFLRMMFGYPTEPYEIDPIMVKALDKLLILHADHEQNCSTSTVRMIGSAQANMFVSIAGGINALSGPLHGGANQAVLEMLEDIKSNHGGDATEFMNKVKNKEDGVRLMGFGHRVYKNYDPRAAIVKETAHEILEHLGGDDLLDLAIKLEEIALADDYFISRKLYPNVDFYTGLIYRAMGFPTDFFTVLFAIGRLPGWIAHYREQLGAAGNKINRPRQVYTGNESRKLVPREER
What is called stoichiometry N is the number of molecules, sites or subunits per partner or assembly. As for B1, the “stoichiometry N” value turned out to be 2.
